Reference: the nanobody polyreactivity screen of Harvey et al. (2022)

Experiment: yeast display, Sf9 membrane polyspecificity reagent, FACS + sequencing; frameworks hold sequencing errors
Outline: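 After 36–48 hours of galactose induction, yeast (Saccharomyces cerevisiae BJ5465) displaying a synthetic nanobody library were stained at 4 °C for 1 hour with 10% biotinylated, detergent-solubilized Sf9 membrane reagent. Streptavidin microbeads enriched the stained cells before FACS sorting into low and high (top ~1%) gates on anti-HA and streptavidin fluorescence. Each clone's polyreactivity label reflects its gate of origin.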

| Sequence | polyreactivity (PSR sort gate) |
| --- | --- |
| QVQLVESGGGLVQAGGSLRLSCAASGRTFQTYAMGWYRQAPGKERELVAAISKSGGGTYYADSVKGRFTISRDNAKNTVYLQMNSLKPEDTAVYYCATAGYHYRAWGGRYDYWGQGTQVTVSS | high polyreactivity |
| QVQLVESGGGLVQAGGSLRLSCAASGNIFYDYGMGWYRQAPGKERELVAGISSVDHTYYADSVKGRFTISRDNAKNTVYLQMNSLKPEDTAVYYCARDTELYVRWLDYWGQGTQVTVSS | low polyreactivity |
| QVQLVESGGGLVQAGGSLRLSCAASGNIFESYGMGWYRHAPGKERELVATINTSSGSTYDADSVKGRFTISRDNAKNTVYLQMNSLKPEDTAVYYCAAEWYPYPWGYGYWGQGTQVTVSS | low polyreactivity |
| QVQLVESGGGLVQAGGSLRLSCAASGRTFVPNAMGWYRQAPGKERELVAAISDSGGSTYYADSVKGRFTISRDNAKNTVYLQMNSLKPEDTAVYYCATDGTTYVGWEHGFNYWGQGTQVTVSS | low polyreactivity |
| QVQLVESGGGLVQAGGSLRLSCAASGITFNRYSMGWYRQAPGKERELVARISLRGGNTYYADSVKGRFTISRDNAKNTVYLQMNSLKPEDPAVYYCNADLYRQYASRYHYWGQGTQVTVSS | high polyreactivity |
| QVQLVESGGGLVQAGVSLRLSCAASGRTFGQYVMGWYRQAPGKERELVAAIRSGGSTYYADSVKGLFTISRDNAKNTVYIQLNSLKPEDTAVYYCNADSGPIDGRGGYWGQGTQVTVSS | low polyreactivity |
| QVQLVESGGGLVQAGGSLRLSCAASGRIFPTNAMGWYRQAPGKERELVAAIPVSGGSTYYADSVKGRFTISRDNAKNTVYLQMNSLKPEDTAVYYCAADSSTYRFDYWGQGTQVTVSS | low polyreactivity |
| QVQLVESGGGLVQAGGSLRISCAASGSTFEVNAMGWYRQAPGKERELVAAISYRGTSTYYADSVKGRFTISRDNAKNTVYLQMNSLKPEDNAVYYCAAEWYDWYWEYDSWGQGTQVTVSS | high polyreactivity |
| QVQLVESAGGLVQAGGSLRLICAASGSTFTYYPMGWYRQAPGKERELVAAISGSGGRTYYADSVKGLFTISRDNAKNTVYLQMNSLKPEDTAVYYCNARATSLVPGRPKQYTYYYWGQGTQVTVSS | high polyreactivity |
| QVQLVESGGGLVQAGGSLRLSCAASGSIFGAYAMGWYRQAPGKERELVATITLRDGSTYYADSVKGRFTISRDNAKNTVYLQMNSLKPEDTAVSYCATYYSAINYGWSKTILYDYWGQGTQVTVSS | low polyreactivity |
| QVQLVESGGGLVQAGGSLRLSCAPSGRIFYGYAMGWYRQAPGKEREFVARINVSGTSTFYADSVKGRFTISRDNAKNTVYLQMNSLKPEDTAVYYCAARGLPSNYYYYVHGYIMDYWGQGTHVTVSS | low polyreactivity |
| QVQLVESGVGLVQAGGSLRLTCAASGRIFVTNAKGWYRQAPGKERELVAAITRGVNTNYADSVKGRFTISRDNAKNTVYLQMNSLKPEDTAVYYCAADSSYYYVYGYFPGYYYWGQGTQVTVSS | low polyreactivity |
| QVQLVESGGGLVQAGGSLRLSCAASGRIFQSNVMGWYRQAPGKERELVAGISTSGGSTYYADSVKGRFTISRDYAKNTVYLQMNSLKPEDTAVYYCAKDPSAVKVPYGYPVIKKTYNSWGQGTQVTVSS | low polyreactivity |
| QVQLVESGGGLVQAGGSLRFSCAASGSIYRNNAIGWYRQAPGKERELVAAITSTGTGTYYADSVKGRFTISRDNAKNTVYFQMNSLKPEDTAVYYCAVDDDFEFGYWGQGTQVTVSS | low polyreactivity |
| QVQLVESGGGLVQAGGSLRLSCAASGITFVHYAMGWYRQAPGKERELVASITRRGGSTYYADSVKGRFTISRDNAKNTVYLQMHSLKPEDTAVYYCAARWSAWSGYIFDYWGQGTQVTVSS | high polyreactivity |
| QVQLVESGGGLVQAGGSLRLSCAASGRIFRYNAMGWYRQAPGKERELVATITDGGSTSYADSVKGRFTISRDNAKNTVYLQMNSLKPEDTAVYYCARDPLPSYWKVWSRPTFDYWGQGTQVTVSS | low polyreactivity |
| QVQLVESGGGLVHAGGSLRLSCASTGFIYQPYAMGWYRQAPGKEMELVAAITSRGGRTYYADSVKGRFTISRDIANNTVYLQMNRLNPVDTAVYYCNADIYASEYYYWGQGTQVTVSS | low polyreactivity |
| QVQLVESGGGLVQAGGSLRLSCAASGSIFAAYAMGWYRQAPGKERELVAVINSRGGITSYADSVKGRFTISRDNAKNTVYLQMNSLKPEDTAVYYFAARTWYSWRYDYWGQGTQVTVSS | high polyreactivity |
| QVQLVESGGGLVQAGGSLRLSCAASGGTFLAYAMGWYRQAPGKERELVAAITRRGTRTYYADSVKGRFTISRDNANNTVYLQMNSLKPEDTAVYYCAVSGGFYWGQGTQVTVSS | high polyreactivity |
| QVQLVESGGGLVQAGGSLRLSCAASGFIFGYYAMGWYRQAPGKERELVAAISFSGDRTYYADSVKGRFTISRDNAKNTVYLQMNSLKPEDTAVYYCNAKRWGDYTQYRYNYWGQGTQVTVSS | high polyreactivity |
| QVQLVESGGGLVQAGGSLRLSCAASGSTIGRYTMGWYRQAPGKERELVAAITGSGAGTYYADSVKGRFTISRDNAKNTVYLQMNRLKPEDTAVYYCNTVFRGGQFRYVRGVKYGYWGQGTQVTVSS | high polyreactivity |
| QVQLVESGGGLVQAGGSLRLICAATGFTFLFYDMGWYRQAPGKERALVAASTSDGSTYYADSVKGRFTISRDNAKNTVYLQMNSLKPEDTAVYYCNADEPDEAYLYQSDYWGQGTQVTVSS | low polyreactivity |

| Sequence | polyreactivity (PSR sort gate) |
| --- | --- |
| QVQLVESGGGLVQAGGSLRLSCAASGRNFEVYTMGWYRQAPGTERELVDAIDRSTGSTYYADSVKGRFTISRDNAKNTVYLQMNSLKPEDTAVYDCAARGTFLGTRPLGRFDYWGQGTQVTVSS | low polyreactivity |
| QLQLVESGGGLVQAGGSLRLSCAASGFIFPDYAMGWYRQAPGTERELVAAMRIRDGSTYYADSVKGRFTISRDNAKNTVYLQMNSLKPEAPAVYYCAVRSSYGYSDTNYIMYYWGQGTQVTVSS | low polyreactivity |
| QVQLVESGGGLVQAGGSLRLSCAASGSTLWGYAMGWYRPAPGKERELVAAITSSGGITYYADSVKGRFTISRDNAKNTVYLQMNSLKPEDTAVYYCAVDYYVVGWTYLYYYRGQGTQVTVSS | low polyreactivity |
| QVQLVESGGGLVQAGGSLRLSCAASGSTFYYYAMGWYRQAPGKERELVAAINSSGGNTYYADSVKGRFTISRDNAKNTVYLQMNSLNPEDTAVYYCATEYYWLQDYDYWGHGTQVTVSS | low polyreactivity |
| QVQLVESGGGLVQAGGSLRLSCAASGRIFLGNVMGWYRQAPGKERELVAAISKSGGTTYYADSVKGRFTISRDNAKNTVYLQMNSLKPEDTAVYYCAAYGSWRTYHYYYWGQGTQVTVSS | high polyreactivity |
| QVQLVESGGGLVQAGGSLRLSCAASGFTFAQYAMGWYRQAPGKERELVATISRRGGSTYYADSVKGRFTISRDNAKNTVYLQMNSLKPEDTAVYYCTAAKYLYRHGFLSAGDMYYWGQGTQVTVSS | high polyreactivity |
| QVQLVESGGGLVQAGGSLRLSCAASGSTLLTYTMGWYRQAPGKERELVASITTSGGSTYADSVKGRFTISRDNAKNTVYLQLNSLKPEDTAVYYCAALYLWYSYHVVYQYDYWGQGTQVTVSS | low polyreactivity |
| QVQLVESGGGLVQAGGSLRLSCAASGRIFYQNTMGWYRQAPGKERELVASISTTGGNTYYADSVKGRFTISRDNAKNTVYLQMNSLKPEDTAVYYCNAVRSVYLYGYIYGVDYWGQGTQVTVSS | low polyreactivity |
| QDQRVESGGGLVQAGGSLRLSCAASGRTISVYAMGWYRQAPGKERELVAAIRTSGGITYYADSVKGRFTISRDNAKNTVYLQMNSLKPEDTAVYYCAAETFRHDSYTRYYYWGQGTQVTVSS | high polyreactivity |
| QDQLVESGGVLVQAGGSLRLSCAASGRIFVYNAMGWYRQAPGKERELVATIDYSGGSTYYADSVKGRFTNSRDYAKNTVYLQINSLKPEDPAVYYCNADWSVYAYDSWGQGTQVTVSS | low polyreactivity |
| QVQLVESGGGLVQAGGSLRLSCAASGSIFSLYAMGWYRQAPGKEWELVAAISRGGSTNYADSVKGRFTISRDNAKNTVYLQMNSLKPEDTAVYYCNAGFGVRRKHITFYTWYDYWGQGTQVTVSS | low polyreactivity |
| QVQLVESRGGLVQAGGSLRLSCAASGIIFDTNAMGWYRQAPGKERELVATITQRGGTTYYADSVKGRFTISRDNAKNTVYLQMNSLKPEDTAVYYCNAGPVRLPYDSWGQGTQVTVSS | low polyreactivity |
| QVQLVESGGGLVQAGGSLRLSCAASGRIFRPYAMGWYRQAPGKERELVASISWRGSSTYYADSVKGRFTISRDNAKNTVYLQMNSLKPEDTAVYYCAARPYTLAFYRYGYWGQGTQVTVSS | high polyreactivity |
| QVQLVESGGGLVQAGGSLRLSCAASGRIFYRYAMGCYRQAPGKERELVAGIRSRGGRTYYADSVKGRFTISRDNAKNTVYLQMNSLKPEDTAVYYCAARYLSGTSRYYYWGQGTQVTVSS | high polyreactivity |
| QVKLEESGGGLVQAGGSISLSCAASGSIFFWYTMGCYRQAPGKERELVATITGSGSSTTYADSVKGRFTISRDNAKNTVYLQMNSLKPEDTAVYYCAAADIIDHSFTYDYWGQGTQVTVSS | low polyreactivity |
| QVQLVESGGGLVQAGGSLRLSCAASGSTFSVYAMGWYRQAPGTERELVAAITWSGGSTYYADSVKGRFTISRDNAKNTDYLQMNSLKPEDTAVYDCNAEGYYVWGITTYWLHQYGYWGQGTQVTVSS | low polyreactivity |
| QVQLVESGGGLVQAGGSLRLTCAASGSIFYPYSMGRYRPAPGKERELVAAISSSGGSTYYADSVKGRFTISRDNAKNTVYLQMNSLKPEDTADYNCAARGKKHAYDYWGQGTQVTVSS | low polyreactivity |
| QVQLVESGGGLVQAGGSLRLSCAASGYIFGPNAMGWYRQAPGKERELVAAISSRGDSTFYADSVKGRFTISRDNAKNTDYLQMNSLKPEDTAVYYCAAEEITQFYVGSYLDDYWGQGTQVTVSS | low polyreactivity |
| QVHLVESGGGLVQAGGSLRLSCAASGLIFLYYAMGWYRQAPGKERELVAAISSGGSTYYADSVKGRFTISRDNAKNTVFLQMNSLTPEDTAVYYCAAADSYSSLEYWGQGTQVTVSS | high polyreactivity |
| QVQLVESGGGLVQAGGSLRLSCAASGLISYRNAMGWYRQAPGKERELVAAISSDGSTYYADSVKGRFTISRDNAKNTVYLQMNSLKPVDTAVYYCAADYREFDAYGAARTLDFDYWGQGTQVTVSS | low polyreactivity |
| QVQLVESAGGLVQAGGSLSLSCAASASTFSSNAMGGYRQAPGKERELVAAITTSGGSTYYADSVKGRFTISRDNAKNTVYLQMNSLIPEDTAVYYCAADLVHAYQWSIFLYGYWGLGTQVTVSS | low polyreactivity |
